Source: the supplement of paper PMC5998384

Columns and labels:
[1] = tested on: HeLa Kyoto; test: solubility in G1/S (NP-40 vs SDS abundance) (log2 ratio); higher = more soluble; conditions: cell cycle stage: G1/S
[2] = tested on: HeLa Kyoto; test: solubility change mitosis vs G1/S (difference of NP-40 vs SDS log2 ratios) (log2 ratio difference); higher = more soluble in mitosis
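For solubility change mitosis vs G1/S (difference of NP-40 vs SDS log2 ratios) in this document: synchronized HeLa Kyoto cells (double thymidine block for G1/S, nocodazole release for mitosis), protein amounts in NP-40 versus SDS lysates quantified by mass spectrometry, three biological replicates.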
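For solubility in G1/S (NP-40 vs SDS abundance) in this document: HeLa Kyoto cells arrested at G1/S by double thymidine block, proteins quantified by TMT10plex mass spectrometry in mild NP-40 versus SDS extracts, three biological replicates.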

For “MERAVRVESGVLVGVVCLLLACPATATGPEVAQPEVDTTLGRVRGRQVGVKGTDRLVNVFLGIPFAQPPLGPDRFSAPHPAQPWEGVRDASTAPPMCLQDVESMNSSRFVLNGKQQIFSVSEDCLVLNVYSPAEVPAGSGRPVMVWVHGGALITGAATSYDGSALAAYGDVVVVTVQYRLGVLGFFSTGDEHAPGNQGFLDVVAALRWVQENIAPFGGDLNCVTVFGGSAGGSIISGLVLSPVAAGLFHRAITQSGVITTPGIIDSHPWPLAQKIANTLACSSSSPAEMVQCLQQKEGEELVLSKKLKNTIYPLTVDGTVFPKSPKELLKEKPFHSVPFLMGVNNHEFSWLIPRGWGLLDTMEQMSREDMLAISTPVLTSLDVPPEMMPTVIDEYLGSNSDAQAKCQAFQEFMGDVFINVPTVSFSRYLRDSGSPVFFYEFQHRPSSFAKIKPAWVKADHGAEGAFVFGGPFLMDESSRLAFPEATEEEKQLSLTMMAQWTHFARTGDPNSKALPPWPQFNQAEQYLEINPVPRAGQKFREAWMQFWSETLPSKIQQWHQKQKNRKAQEDL [CES3]”, the “solubility in G1/S (log2)” value [1] was 0.261 and the “solubility change mitosis (log2)” value [2] was -0.166.

With “MERLRDVRERLQAWERAFRRQRGRRPSQDDVEAAPEETRALYREYRTLKRTTGQAGGGLRSSESLPAAAEEAPEPRCWGPHLNRAATKSPQSTPGRSRQGSVPDYGQRLKANLKGTLQAGPALGRRPWPLGRASSKASTPKPPGTGPVPSFAEKVSDEPPQLPEPQPRPGRLQHLQASLSQRLGSLDPGWLQRCHSEVPDFLGAPKACRPDLGSEESQLLIPGESAVLGPGAGSQGPEASAFQEVSIRVGSPQPSSSGGEKRRWNEEPWESPAQVQQESSQAGPPSEGAGAVAVEEDPPGEPVQAQPPQPCSSPSNPRYHGLSPSSQARAGKAEGTAPLHIFPRLARHDRGNYVRLNMKQKHYVRGRALRSRLLRKQAWKQKWRKKGECFGGGGATVTTKESCFLNEQFDHWAAQCPRPASEEDTDAVGPEPLVPSPQPVPEVPSLDPTVLPLYSLGPSGQLAETPAEVFQALEQLGHQAFRPGQERAVMRILSGISTLLVLPTGAGKSLCYQLPALLYSRRSPCLTLVVSPLLSLMDDQVSGLPPCLKAACIHSGMTRKQRESVLQKIRAAQVHVLMLTPEALVGAGGLPPAAQLPPVAFACIDEAHCLSQWSHNFRPCYLRVCKVLRERMGVHCFLGLTATATRRTASDVAQHLAVAEEPDLHGPAPVPTNLHLSVSMDRDTDQALLTLLQGKRFQNLDSIIIYCNRREDTERIAALLRTCLHAAWVPGSGGRAPKTTAEAYHAGMCSRERRRVQRAFMQGQLRVVVATVAFGMGLDRPDVRAVLHLGLPPSFESYVQAVGRAGRDGQPAHCHLFLQPQGEDLRELRRHVHADSTDFLAVKRLVQRVFPACTCTCTRPPSEQEGAVGGERPVPKYPPQEAEQLSHQAAPGPRRVCMGHERALPIQLTVQALDMPEEAIETLLCYLELHPHHWLELLATTYTHCRLNCPGGPAQLQALAHRCPPLAVCLAQQLPEDPGQGSSSVEFDMVKLVDSMGWELASVRRALCQLQWDHEPRTGVRRGTGVLVEFSELAFHLRSPGDLTAEEKDQICDFLYGRVQARERQALARLRRTFQAFHSVAFPSCGPCLEQQDEERSTRLKDLLGRYFEEEEGQEPGGMEDAQGPEPGQARLQDWEDQVRCDIRQFLSLRPEEKFSSRAVARIFHGIGSPCYPAQVYGQDRRFWRKYLHLSFHALVGLATEELLQVAR [RECQL4]” the “solubility in G1/S (log2)” value [1] was -0.103 and the “solubility change mitosis (log2)” value [2] was 0.0659.

“MERVNDASCGPSGCYTYQVSRHSTEMLHNLNQQRKNGGRFCDVLLRVGDESFPAHRAVLAACSEYFESVFSAQLGDGGAADGGPADVGGATAAPGGGAGGSRELEMHTISSKVFGDILDFAYTSRIVVRLESFPELMTAAKFLLMRSVIEICQEVIKQSNVQILVPPARADIMLFRPPGTSDLGFPLDMTNGAALAANSNGIAGSMQPEEEAARAAGAAIAGQASLPVLPGVDRLPMVAGPLSPQLLTSPFPSVASSAPPLTGKRGRGRPRKANLLDSMFGSPGGLREAGILPCGLCGKVFTDANRLRQHEAQHGVTSLQLGYIDLPPPRLGENGLPISEDPDGPRKRSRTRKQVACEICGKIFRDVYHLNRHKLSHSGEKPYSCPVCGLRFKRKDRMSYHVRSHDGSVGKPYICQSCGKGFSRPDHLNGHIKQVHTSERPHKCQTCNASFATRDRLRSHLACHEDKVPCQVCGKYLRAAYMADHLKKHSEGPSNFCSICNRGFSSASYLKVHVKTHHGVPLPQVSRHQEPILNGGAAFHCARTYGNKEGQKCSHQDPIESSDSYGDLSDASDLKTPEKQSANGSFSCDMAVPKNKMESDGEKKYPCPECGSFFRSKSYLNKHIQKVHVRALGGPLGDLGPALGSPFSPQQNMSLLESFGFQIVQSAFASSLVDPEVDQQPMGPEGK [PATZ1]” was tested, and the “solubility in G1/S (log2)” value [1] was -0.643 and the “solubility change mitosis (log2)” value [2] was 0.402.

In the case of “MESTAYPLNLSLKEEEEEEEIQSRELEDGPADMQKVRICSEGGWVPALFDEVAIYFSDEEWEVLTEQQKALYREVMRMNYETVLSLEFPFPKPDMITRLEGEEESQNSDEWQLQGGTSAENEESDVKPPDWPNPMNATSQFPQPQHFDSFGLRLPRDITELPEWSEGYPFYMAMGFPGYDLSADDIAGKFQFSRGMRRSYDAGFKLMVVEYAESTNNCQAAKQFGVLEKNVRDWRKVKPQLQNAHAMRRAFRGPKNGRFALVDQRVAEYVRYMQAKGDPITREAMQLKALEIAQEMNIPEKGFKASLGWCRRMMRRYDLSLRHKVPVPQHLPEDLTEKLVTYQRSVLALRRAHDYEVAQMGNADETPICLEVPSRVTVDNQGEKPVLVKTPGREKLKITAMLGVLADGRKLPPYIILRGTYIPPGKFPSGMEIRCHRYGWMTEDLMQDWLEVVWRRRTGAVPKQRGMLILNGFRGHATDSVKNSMESMNTDMVIIPGGLTSQLQVLDVVVYKPLNDSVRAQYSNWLLAGNLALSPTGNAKKPPLGLFLEWVMVAWNSISSESIVQGFKKCHISSNLEEEDDVLWEIESELPGGGEPPKDCDTESMAESN [POGK]”, the “solubility in G1/S (log2)” value [1] is reported as -0.0733 and the “solubility change mitosis (log2)” value [2] is reported as -0.0638.

“MFNRAVSRLSRKRPPSDIHDSDGSSSSSHQSLKSTAKWAASLENLLEDPEGVKRFREFLKKEFSEENVLFWLACEDFKKMQDKTQMQEKAKEIYMTFLSSKASSQVNVEGQSRLNEKILEEPHPLMFQKLQDQIFNLMKYDSYSRFLKSDLFLKHKRTEEEEEDLPDAQTAAKRASRIYNT [RGS10]” was tested, and the “solubility in G1/S (log2)” value [1] was 0.563 and the “solubility change mitosis (log2)” value [2] was 0.405.

For “MFRIEGLAPKLDPEEMKRKMREDVISSIRNFLIYVALLRVTPFILKKLDSI [TOMM5]”, the “solubility in G1/S (log2)” value [1] was -0.518 and the “solubility change mitosis (log2)” value [2] was -0.172.

With “MGAVTDDEVIRKRLLIDGDGAGDDRRINLLVKSFIKWCNSGSQEEGYSQYQRMLSTLSQCEFSMGKTLLVYDMNLREMENYEKIYKEIECSIAGAHEKIAECKKQILQAKRIRKNRQEYDALAKVIQHHPDRHETLKELEALGKELEHLSHIKESVEDKLELRRKQFHVLLSTIHELQQTLENDEKLSEVEEAQEASMETDPKP [THOC7]” the “solubility in G1/S (log2)” value [1] was -0.022 and the “solubility change mitosis (log2)” value [2] was 0.387.

“MGDAGSERSKAPSLPPRCPCGFWGSSKTMNLCSKCFADFQKKQPDDDSAPSTSNSQSDLFSEETTSDNNNTSITTPTLSPSQQPLPTELNVTSPSKEECGPCTDTAHVSLITPTKRSCGTDSQSENEASPVKRPRLLENTERSEETSRSKQKSRRRCFQCQTKLELVQQELGSCRCGYVFCMLHRLPEQHDCTFDHMGRGREEAIMKMVKLDRKVGRSCQRIGEGCS [ZFAND3]” was tested, and the “solubility in G1/S (log2)” value [1] was 0.216 and the “solubility change mitosis (log2)” value [2] was -0.0341.

In the case of “MGDNPFQPKSNSKMAELFMECEEEELEPWQKKVKEVEDDDDDEPIFVGEISSSKPAISNILNRVNPSSYSRGLKNGALSRGITAAFKPTSQHYTNPTSNPVPASPINFHPESRSSDSSVIVQPFSKPGYITNSSRVVSNKSSELLFDLTQDTGLSHYQGGPTLSMAGMSESSFLSKRPSTSEVNNVNPKKPKPSESVSGANSSAVLPSVKSPSVTSSQAMLAKGTNTSSNQSKNGTPFPRACPKCNIHFNLLDPLKNHMKYCCPDMINNFLGLAKTEFSSTVNKNTTIDSEKGKLIMLVNDFYYGKHEGDVQEEQKTHTTFKCFSCLKILKNNIRFMNHMKHHLELEKQSSESWENHTTCQHCYRQFPTPFQLQCHIESTHTPHEFSTICKICELSFETEHVLLQHMKDNHKPGEMPYVCQVCNYRSSSFSDVETHFRTSHENTKNLLCPFCLKVIKIATPYMHHYMKHQKKGIHRCTKCRLQFLTCKEKMDHKTQHHRTFIKPKQLEGLPPGTKVTIRASVGPLQSGASPTPSISASASTLQLSPPRTKNITAKNPAKSNTSKPNTVKSNASKPNTSKPNGSKSKYKPKISNMQKKQSTLASSNKKSKVNTALRNLRYRRGIHKCIECCSEIKDFANHFPTYVHCSFCRYNTSCSKAYVNHMMSFHSNRPSKRFCIFKKHSENLRGITLVCLNCDFLSDVSGLDNMATHLSQHKTHTCQVVMQKVSVCIPTSEHLSELKKEAPAKEQEPVSKEIARPNMAERETETSNSESKQDKAASSKEKNGCNANSFEGSSTTKSEESITVSDKENETCLADQETGSKNIVSCDSNIGADKVEKKKQIQHVCQEMELKMCQSSENIILSDQIKDHNSSEARFSSKNIKDLRLASDNVSIDQFLRKRHEPESVSSDVSEQGSIHLEPLTPSEVLEYEATEILQKGSGDPSAKTDEVVSDQTDDIPGGNNPSTTEATVDLEDEKERS [ZNF280D]”, the “solubility in G1/S (log2)” value [1] is reported as -0.86 and the “solubility change mitosis (log2)” value [2] is reported as 0.447.

“MGETKIIYHLDGQETPYLVKLPLPAERVTLADFKGVLQRPSYKFFFKSMDDDFGVVKEEISDDNAKLPCFNGRVVSWLVSAEGSHPDPAPFCADNPSELPPPMERTGGIGDSRPPSFHPHAGGGSQENLDNDTETDSLVSAQRERPRRRDGPEHATRLNGTAKGERRREPGGYDSSSTLMSSELETTSFFDSDEDDSTSRFSSSTEQSSASRLMRRHKRRRRKQKVSRIERSSSFSSITDSTMSLNIITVTLNMEKYNFLGISIVGQSNERGDGGIYIGSIMKGGAVAADGRIEPGDMLLQVNEINFENMSNDDAVRVLREIVHKPGPITLTVAKCWDPSPRGCFTLPRSEPIRPIDPAAWVSHTAAMTGTFPAYGMSPSLSTITSTSSSITSSIPDTERLDDFHLSIHSDMAAIVKAMASPESGLEVRDRMWLKITIPNAFIGSDVVDWLYHNVEGFTDRREARKYASNLLKAGFIRHTVNKITFSEQCYYIFGDLCGNMANLSLHDHDGSSGASDQDTLAPLPHPGAAPWPMAFPYQYPPPPHPYNPHPGFPELGYSYGGGSASSQHSEGSRSSGSNRSGSDRRKEKDPKAGDSKSGGSGSESDHTTRSSLRGPRERAPSERSGPAASEHSHRSHHSLASSLRSHHTHPSYGPPGVPPLYGPPMLMMPPPPAAMGPPGAPPGRDLASVPPELTASRQSFRMAMGNPSEFFVDVM [DVL3]” was tested, and the “solubility in G1/S (log2)” value [1] was -0.0796 and the “solubility change mitosis (log2)” value [2] was -0.17.
